Target: T1, human RHBDF2, full-length, HA-tagged (RHBDF2-HA), Q6PJF5
T1 chain: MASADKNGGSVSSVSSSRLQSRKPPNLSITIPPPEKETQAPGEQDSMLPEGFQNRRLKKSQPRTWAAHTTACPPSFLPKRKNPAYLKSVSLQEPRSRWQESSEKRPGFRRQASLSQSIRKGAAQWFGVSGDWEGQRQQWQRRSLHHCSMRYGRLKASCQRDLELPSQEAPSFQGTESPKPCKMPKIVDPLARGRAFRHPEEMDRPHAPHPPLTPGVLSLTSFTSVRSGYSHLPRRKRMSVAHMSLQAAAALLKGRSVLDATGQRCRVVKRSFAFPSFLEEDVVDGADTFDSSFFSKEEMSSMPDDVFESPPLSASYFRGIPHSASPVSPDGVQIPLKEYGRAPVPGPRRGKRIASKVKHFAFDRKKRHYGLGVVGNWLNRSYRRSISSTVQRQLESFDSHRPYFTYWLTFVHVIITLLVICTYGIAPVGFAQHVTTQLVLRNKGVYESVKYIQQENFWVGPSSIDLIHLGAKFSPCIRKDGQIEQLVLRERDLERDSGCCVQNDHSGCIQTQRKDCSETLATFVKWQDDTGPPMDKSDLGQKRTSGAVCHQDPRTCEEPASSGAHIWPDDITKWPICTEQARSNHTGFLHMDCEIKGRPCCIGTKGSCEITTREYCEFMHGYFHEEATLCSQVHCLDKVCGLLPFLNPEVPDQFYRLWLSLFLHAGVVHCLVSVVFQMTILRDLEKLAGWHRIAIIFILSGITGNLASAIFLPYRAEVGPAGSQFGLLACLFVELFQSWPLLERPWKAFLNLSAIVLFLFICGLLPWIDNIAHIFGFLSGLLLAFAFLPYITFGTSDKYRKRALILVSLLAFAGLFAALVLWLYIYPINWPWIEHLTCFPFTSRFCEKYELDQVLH

B1: human TRIM31, full-length wild type, Flag-tagged (TRIM31-Flag WT) (protein)
chain: MASGQFVNKLQEEVICPICLDILQKPVTIDCGHNFCLKCITQIGETSCGFFKCPLCKTSVRKNAIRFNSLLRNLVEKIQALQASEVQSKRKEATCPRHQEMFHYFCEDDGKFLCFVCRESKDHKSHNVSLIEEAAQNYQGQIQEQIQVLQQKEKETVQVKAQGVHRVDVFTDQVEHEKQRILTEFELLHQVLEEEKNFLLSRIYWLGHEGTEAGKHYVASTEPQLNDLKKLVDSLKTKQNMPPRQLLEDIKVVLCRSEEFQFLNPTPVPLELEKKLSEAKSRHDSITGSLKKFKDQLQADRKKDENRFFKSMNKNDMKSWGLLQKNNHKMNKTSEPGSSSAGGRTTSGPPNHHSSAPSHSLFRASSAGKVTFPVCLLASYDEISGQGASSQDTKTFDVALSEELHAALSEWLTAIRAWFCEVPSS
  polyubiquitination of Rhbdf2 with single-lysine ubiquitin constructs (K48O, K63O, K33O, K6O, K29O, K27O): Trim31-mediated increase in polyubiquitination of Rhbdf2 could be greatly observed in the presence of K48-loading vector, but not with other vectors

From patent US20240293579A1, “Composition Comprising Trim31 and Rhbdf2 for Treatment of NAFLD/NASH” (CHONGQING MEIPULAN TECHNOLOGY CO., LTD, priority 2021, published 2024)
